Where two headings read alike, the source gives them in different places.

Test [1] concerns the target T1, MERS-CoV S2 (Sino Biological, 40070-V08) (MERS-CoV, UniProt K9N5Q8 726-1296).
T1 sequence: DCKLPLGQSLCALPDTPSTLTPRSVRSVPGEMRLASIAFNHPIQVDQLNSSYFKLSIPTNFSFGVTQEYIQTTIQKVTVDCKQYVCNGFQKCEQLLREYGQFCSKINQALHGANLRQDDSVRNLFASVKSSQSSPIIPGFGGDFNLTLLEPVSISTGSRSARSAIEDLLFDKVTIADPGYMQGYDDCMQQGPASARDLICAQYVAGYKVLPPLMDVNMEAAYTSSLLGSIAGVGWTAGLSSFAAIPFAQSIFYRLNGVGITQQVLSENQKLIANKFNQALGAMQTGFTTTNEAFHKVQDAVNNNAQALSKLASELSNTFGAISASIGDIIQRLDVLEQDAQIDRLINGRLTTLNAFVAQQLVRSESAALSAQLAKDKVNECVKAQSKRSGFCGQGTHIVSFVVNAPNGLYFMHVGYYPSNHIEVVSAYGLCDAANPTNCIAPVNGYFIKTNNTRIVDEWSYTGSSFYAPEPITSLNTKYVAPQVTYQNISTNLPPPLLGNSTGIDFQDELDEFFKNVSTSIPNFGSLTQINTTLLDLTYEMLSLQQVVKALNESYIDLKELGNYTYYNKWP
The test can be described thus: ELISA, mAb at 5, 0.5 and 0.05 ug/ml, without and with 8M urea; AUC heat map.

The target in test [2] is T2, OC43 S2 (40607-V08B1, Sino Biological) (HCoV-OC43, UniProt P36334 759-1297).
T2 construct: domain: S2
T2 sequence: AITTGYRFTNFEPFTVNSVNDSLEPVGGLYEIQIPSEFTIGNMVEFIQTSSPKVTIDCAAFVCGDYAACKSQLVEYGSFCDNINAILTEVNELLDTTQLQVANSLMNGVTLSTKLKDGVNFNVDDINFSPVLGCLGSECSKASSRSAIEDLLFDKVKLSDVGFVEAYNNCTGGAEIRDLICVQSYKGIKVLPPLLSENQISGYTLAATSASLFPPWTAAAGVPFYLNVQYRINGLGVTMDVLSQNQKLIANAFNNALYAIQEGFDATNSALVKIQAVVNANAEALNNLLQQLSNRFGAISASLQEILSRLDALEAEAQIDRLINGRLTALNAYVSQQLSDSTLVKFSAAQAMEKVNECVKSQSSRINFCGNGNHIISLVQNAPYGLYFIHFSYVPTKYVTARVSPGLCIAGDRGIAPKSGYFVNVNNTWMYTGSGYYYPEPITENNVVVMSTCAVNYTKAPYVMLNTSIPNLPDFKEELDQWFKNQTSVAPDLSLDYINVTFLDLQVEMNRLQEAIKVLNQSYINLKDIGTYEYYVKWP
Described as above.

The target in test [3] is T3, HKU1 S2 (40021-V08B, Sino Biological) (HCoV-HKU1, UniProt Q5MQD0 761-1300).
T3 construct: domain: S2
T3 sequence: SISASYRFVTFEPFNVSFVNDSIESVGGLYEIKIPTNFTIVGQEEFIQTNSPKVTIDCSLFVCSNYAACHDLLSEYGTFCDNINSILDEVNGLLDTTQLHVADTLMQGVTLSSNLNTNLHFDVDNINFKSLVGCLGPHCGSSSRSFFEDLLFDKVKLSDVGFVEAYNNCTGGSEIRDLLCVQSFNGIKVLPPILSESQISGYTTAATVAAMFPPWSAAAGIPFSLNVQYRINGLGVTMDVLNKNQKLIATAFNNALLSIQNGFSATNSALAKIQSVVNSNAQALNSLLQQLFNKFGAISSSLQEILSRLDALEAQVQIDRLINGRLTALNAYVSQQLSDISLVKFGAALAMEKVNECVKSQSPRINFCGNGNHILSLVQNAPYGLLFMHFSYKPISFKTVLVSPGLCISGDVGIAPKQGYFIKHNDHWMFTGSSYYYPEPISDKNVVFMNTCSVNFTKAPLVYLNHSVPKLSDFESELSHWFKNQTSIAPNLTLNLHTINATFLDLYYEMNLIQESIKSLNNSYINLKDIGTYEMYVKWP
The description is as above.

Test [4] addresses SARS-CoV-2 Wuhan-Hu-1 Spike protein (NR-53524 BEI Resources) (SARS-CoV-2, UniProt P0DTC2 16-1213). The experiment in a line: cell-based or functional assay.
In test [5] the target is T1, MERS-CoV S2 (Sino Biological, 40070-V08). The test can be described thus: SPR, as far as told; target printed as MERS-CoV SH. On the technique in general: In SPR one partner is held on a chip, and binding of the other changes the refractive index at the surface.
Test [6] deals with T2, OC43 S2 (40607-V08B1, Sino Biological). The experiment in a line: ELISA titration of 1249A8 on coated Spike proteins, mean Abs at 450 nm.
The target in test [7] is T1, MERS-CoV S2 (Sino Biological, 40070-V08). The experiment in a line: SPR/BLI, method not told apart.
The target in test [8] is T4, SARS-CoV Spike protein (SARS-CoV, UniProt P59594 14-1195). The test can be described thus: SPR/BLI, method not told apart.
For test [9], the target named is T4, SARS-CoV Spike protein.
For test [10], the target named is Spike of live SARS-CoV-2 WT virus (SARS-CoV-2, UniProt P0DTC2 14-1273). The test can be described thus: cell-based or functional assay.
For test [11], the target named is T5, SARS-CoV-2 S1 (40591-V08H3, Sino Biological) (SARS-CoV-2, UniProt P0DTC2 16-685).
T5 construct: domain: S1
The experiment in a line: ELISA, hmAb at 10 and 1 ug/ml in duplicate; AUC. For orientation: An ELISA detects its analyte on a solid surface through an enzyme-linked reagent.

The target of test [12] is T6, SARS-CoV-2 S1+S2 (40589-V08B1, Sino Biological) (SARS-CoV-2, UniProt P0DTC2 16-1213). The experiment in a line: ELISA, hmAb at 10 and 1 ug/ml in duplicate; AUC.
The target of test [13] is T7, SARS-CoV-2 S2 (40590-V08B, Sino Biological) (SARS-CoV-2, UniProt P0DTC2 686-1213).
T7 construct: domain: S2
The experiment in a line: ELISA, hmAb at 10 and 1 ug/ml in duplicate; AUC.

The target of test [14] is T5, SARS-CoV-2 S1 (40591-V08H3, Sino …). The experiment in a line: ELISA on coated protein, anti-human IgG-HRP; AUC of the OD.
For test [15], the target named is T6, SARS-CoV-2 S1+S2 (40589-V08B1, Sino …). The description is as above.
Test [16] deals with T7, SARS-CoV-2 S2 (40590-V08B, Sino …). Described as above.
For test [17], the target named is T1, MERS-CoV S2 (Sino Biological, 40070-V08). The experiment in a line: BLI, mAb on anti-human Fc biosensor, MERS Spike protein in solution. (In general: Biolayer interferometry detects binding as a change in optical thickness at a sensor tip.)

B1: 1213H7 (antibody, V domains shown)
VH: QVQLQQSGPEVKKPGTSVKVSCRASGFTFSSSAMQWVRQARGQRLEWIGWIVVGSGNANYAQKFQERVTITRDLSTRTAYMELSSLRSEDTAVYYCAAPYCSGGTCLDGFDIWGQGTMVTVSS
VL: EIVLTQSPGTLSLSPGERATLSCRASQSVSRNYLGWYQQKPGQAPRLLIYGASSRATGIPDRFSGSGSGTDFTLTISRLEPEDFAVYYCQQYGSSPWTFGQGTKVEIK
For B1, the binding result in test [1], in test [2] and in [3] was “no binding (tested: 5 ug/ml)” each time. The “ADCP activity, fold over isotype control” value in test [4] was roughly 8 fold.

B2: S2P6 (antibody, V domains shown)
VH: EVQLVQSGAEVKKPGASVKVSCKASGYTFTSQYMHWVRQAPGQGLEWIGIINPSGVHTSYAQKFQGRVTLTRDTSTSTLYMELSSLRSEDTAVYYCARGSPKGAFDYWGQGTLVTVSS
VL: not shown
Turning to B2, the Kd – broadly, the equilibrium constant for the complex coming apart – in test [5] came to 8.5 nM.

B3: 1249A8 (antibody, V domains shown)
VH: QVQLVQSGAEVKKPGASMKVSCKASGFTFTDYYMHWVRQAPRQGLEWMGLINPSGSGTAYAQNFQGRVTLARDTSTSTLYMEMGSLTSDDTAVYYCARMDSSGSYDHWGQGTLVTVSS
VL: ETTLTQSPGTLSLSPGDRATLSCRASQTIRISYLAWYQQKPGQAPRLLVYGPSIRATGIPDRFSARGSGTDFTLTISRLEPEDFAVYYCQHYGSSPPRYTFGQGTKLEIK
For the molecule B3, the figures for the binding result in test [6] and in [11] were “binds” and “no binding (tested: 10 ug/ml)”, respectively. The Kd in test [7] came to 0.58 nM; with SARS-CoV Spike protein [8], 3.2 nM; with SARS-CoV Spike protein [9], 3.15 nM; in test [17], 0.56 nM. Further, in [10], the “Neutralization IC50 (µg/ml), Live Virus WT” value stood at 1.77 µg/mL. In addition, the “Binding AUC” value came to 1.4 in test [11]; 24.8 in test [12]; 28.2 in [13]; 1.4 in test [14]; 24.8 in test [15]; 28.2 in test [16].
